Source: ChEMBL document CHEMBL4024756, “Identification of 4-Phenoxyquinoline Based Inhibitors for L1196M Mutant of Anaplastic Lymphoma Kinase by Structure-Based Design” (J Med Chem, 2017)

Columns and labels:
Conditions in all cases: Homo sapiens
[1] = substrate: Cc1ccc(Oc2ccnc3cc(-c4cnn(C5CCNCC5)c4)ccc23)cc1
[2] = substrate: Cc1ccc(Oc2ccnc3cc(-c4cnn(C5CCNCC5)c4)ccc23)cc1; remark: listed apart in the source
[3] = substrate: Cc1ccc(Oc2ccnc3cc(-c4cnn(C5CCNCC5)c4)ccc23)cc1; remark: listed apart in the source
[4] = substrate: Cc1ccc(Oc2ccnc3cc(-c4cnn(C5CCNCC5)c4)ccc23)cc1; remark: listed apart in the source
[5] = substrate: Cc1ccc(Oc2ccnc3cc(-c4cnn(C5CCNCC5)c4)ccc23)cc1; remark: listed apart in the source

B1: ALK tyrosine kinase receptor (Homo sapiens), Q9UM73 L1196M (protein)
chain: MGAIGLLWLLPLLLSTAAVGSGMGTGQRAGSPAAGPPLQPREPLSYSRLQRKSLAVDFVVPSLFRVYARDLLLPPSSSELKAGRPEARGSLALDCAPLLRLLGPAPGVSWTAGSPAPAEARTLSRVLKGGSVRKLRRAKQLVLELGEEAILEGCVGPPGEAAVGLLQFNLSELFSWWIRQGEGRLRIRLMPEKKASEVGREGRLSAAIRASQPRLLFQIFGTGHSSLESPTNMPSPSPDYFTWNLTWIMKDSFPFLSHRSRYGLECSFDFPCELEYSPPLHDLRNQSWSWRRIPSEEASQMDLLDGPGAERSKEMPRGSFLLLNTSADSKHTILSPWMRSSSEHCTLAVSVHRHLQPSGRYIAQLLPHNEAAREILLMPTPGKHGWTVLQGRIGRPDNPFRVALEYISSGNRSLSAVDFFALKNCSEGTSPGSKMALQSSFTCWNGTVLQLGQACDFHQDCAQGEDESQMCRKLPVGFYCNFEDGFCGWTQGTLSPHTPQWQVRTLKDARFQDHQDHALLLSTTDVPASESATVTSATFPAPIKSSPCELRMSWLIRGVLRGNVSLVLVENKTGKEQGRMVWHVAAYEGLSLWQWMVLPLLDVSDRFWLQMVAWWGQGSRAIVAFDNISISLDCYLTISGEDKILQNTAPKSRNLFERNPNKELKPGENSPRQTPIFDPTVHWLFTTCGASGPHGPTQAQCNNAYQNSNLSVEVGSEGPLKGIQIWKVPATDTYSISGYGAAGGKGGKNTMMRSHGVSVLGIFNLEKDDMLYILVGQQGEDACPSTNQLIQKVCIGENNVIEEEIRVNRSVHEWAGGGGGGGGATYVFKMKDGVPVPLIIAAGGGGRAYGAKTDTFHPERLENNSSVLGLNGNSGAAGGGGGWNDNTSLLWAGKSLQEGATGGHSCPQAMKKWGWETRGGFGGGGGGCSSGGGGGGYIGGNAASNNDPEMDGEDGVSFISPLGILYTPALKVMEGHGEVNIKHYLNCSHCEVDECHMDPESHKVICFCDHGTVLAEDGVSCIVSPTPEPHLPLSLILSVVTSALVAALVLAFSGIMIVYRRKHQELQAMQMELQSPEYKLSKLRTSTIMTDYNPNYCFAGKTSSISDLKEVPRKNITLIRGLGHGAFGEVYEGQVSGMPNDPSPLQVAVKTLPEVCSEQDELDFLMEALIISKFNHQNIVRCIGVSLQSLPRFILMELMAGGDLKSFLRETRPRPSQPSSLAMLDLLHVARDIACGCQYLEENHFIHRDIAARNCLLTCPGPGRVAKIGDFGMARDIYRASYYRKGGCAMLPVKWMPPEAFMEGIFTSKTDTWSFGVLLWEIFSLGYMPYPSKSNQEVLEFVTSGGRMDPPKNCPGPVYRIMTQCWQHQPEDRPNFAIILERIEYCTQDPDVINTALPIEYGPLVEEEEKVPVRPKDPEGVPPLLVSQQAKREEERSPAAPPPLPTTSSGKAAKKPTAAEISVRVPRGPAVEGGHVNMAFSQSNPPSELHKVHGSRNKPTSLWNPTYGSWFTEKPTKKNNPIAKKEPHDRGNLGLEGSCTVPPNVATGRLPGASLLLEPSSLTANMKEVPLFRLRHFPCGNVNYGYQQQGLPLEAATAPGAGHYEDTILKSKNSMNQPGP
[1]
  Km: 58.8 µM
[2]
  Km: 94.6 µM
[3]
  Km: 298 µM
[4]
  Km: 860 µM
[5]
  Km: 32.6 µM
